# Results: paper PMC10792529 (Proteins, 2023)
# “And” between values parts separate entries of the source, which are not always exact repeats. Equal values may be shown once.
# B1: Bacteriophage T5 Receptor Binding Protein RBPpb5 (natural protein)
# chain: MSFFAGKLNNKSILSLRRGSGGDTNQHINPDSQTIFHSDMSHVIITETHSTGLRLDQGAGDYYWSEMPSRVTQLHNNDPNRVVLTEIEFSDGSRHMLSGMSMGVGAKAYGIINPQIMSQGGLKTQITASADLSLDVGYFNTGTSGTIPQKLRDGTGCQHMFGAFSGRRGFASSAMYLGGAALYKSAWSGSGYVVADAGTLTIPSDYVRHPGARNFGFNAIYVRGRSCNRVLYGMEGPNYTTGGAVQGASSSGALNFTYNPSNPESPKYSVGFARADPTNYAYWESMGDPNDSANGPIGIYSEHLGIYPSKITWYVTNLVYNGSGYNIDGGLFNGNDIKLSPREFIIKGVNVNNTSWKFINFIEKNFNVGNRADFRDVGCNLSKDSPSTGISGIATFGLPTTESNNAPSIKGGNVGGLHANVVSIYNFLPSASWYVSSNPPKIGNNYGDVWSENLLPLRLLGGSGSTILSGNIVFQGNGSVHVGTVGLDLNSSRNGAIVCTMEFIDDTWLSAGGIGCFNPTEMLSQGAEYGDSRFRIGGNTINKKLHQILSLPAGEYVPFFTIKGTVVNACKLQAAAYNPTPYWVSGLPGSVGQTGYYTLTYYMRNDGNNNISIWLDSSMSNIIGMKACLPNIKLIIQRLT
# B2: human SUN1 SUN domain (domain or fragment)
# chain: GITEAQARAIVNSALKLYSQDKTGMVDFALESGGGSILSTRCSETYETKTALMSLFGIPLWYFSQSPRVVIQPDIYPGNCWAFKGSQGYLVVRLSMMIHPAAFTLEHIPKTLSPTGNISSAPKDFAVYGLENEYQEEGQLLGQFTYDQDGESLQMFQALKRPDDTAFQIVELRIFSNWGHPEYTCLYRFRVHGEPVK
# B3: nanobody 8C (VHH)
# VHH: EVQLEESGGGLVQAGGSLTLSCAASGFTFDDYAMGWYRQAPGKERVGVSCISRTDGYTYYLDSVKGRFTISTDHAKHTVYLQMNNLKPDDTGLYYCAADADPEYGSRCPDPYYGMDYWGKGILVTVSS
# What was measured:
# [1] = target: cytosolic domain of the major export gate protein YscV (Yersinia enterocolitica); test: crystal structure; 9:9:9 YscV:YscX:YscY complex, 4.1 Å, 18 copies of the 1:1:1 complex in the asymmetric unit
# [2] = target: HucM, scaffold subunit of the [NiFe]-hydrogenase Huc (Mycobacterium smegmatis); test: cryo-EM structure; 833 kDa Huc complex: 8 HucL, 8 HucS, 4 HucM
# [3] = target: tyrosine O-methyltransferase MfnG from Streptomyces drozdowiczii (Streptomyces drozdowiczii); test: crystal structure; MfnG with SAH and soaked L-Tyr; five crystal forms with one to four dimers per asymmetric unit
# [4] = target: Mycobacterium smegmatis MceG (Mycobacterium smegmatis); test: cryo-EM structure
# [5] = target: nudivirus polyhedrin (occlusion body protein of Tipula oleracea nudivirus) (Tipula oleracea nudivirus); test: crystal structure
# [6] = target: HucSL heterodimer (Mycobacterium smegmatis); test: cryo-EM structure; 833 kDa Huc complex: 8 HucL, 8 HucS, 4 HucM
# [7] = target: T1, E. coli outer-membrane transporter FhuA (E. coli, UniProt P06971 34-747); test: cryo-EM structure; conditions: both partners purified
# T1 sequence (looked up): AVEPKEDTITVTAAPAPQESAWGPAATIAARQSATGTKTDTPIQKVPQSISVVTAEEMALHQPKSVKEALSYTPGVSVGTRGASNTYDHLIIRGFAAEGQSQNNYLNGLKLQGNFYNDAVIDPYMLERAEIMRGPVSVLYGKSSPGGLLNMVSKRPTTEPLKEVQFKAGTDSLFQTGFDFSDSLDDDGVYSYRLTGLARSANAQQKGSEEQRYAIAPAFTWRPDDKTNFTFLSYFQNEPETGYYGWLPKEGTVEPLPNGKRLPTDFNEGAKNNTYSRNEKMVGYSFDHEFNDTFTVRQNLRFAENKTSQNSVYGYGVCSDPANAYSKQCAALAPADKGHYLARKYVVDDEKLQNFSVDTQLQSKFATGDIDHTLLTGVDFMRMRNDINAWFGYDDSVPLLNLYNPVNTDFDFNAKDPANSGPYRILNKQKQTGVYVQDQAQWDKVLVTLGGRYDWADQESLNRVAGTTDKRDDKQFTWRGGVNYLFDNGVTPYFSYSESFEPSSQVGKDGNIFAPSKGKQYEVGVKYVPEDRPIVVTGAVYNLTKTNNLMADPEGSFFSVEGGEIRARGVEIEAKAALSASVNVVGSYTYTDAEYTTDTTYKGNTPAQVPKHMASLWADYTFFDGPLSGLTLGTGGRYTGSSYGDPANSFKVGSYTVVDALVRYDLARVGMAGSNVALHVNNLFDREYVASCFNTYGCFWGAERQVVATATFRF
# human SUN1 SUN domain = target: B2; test: crystal structure; SUN1-KASH6 complex, nine SUN domains and six KASH peptides; conditions: both partners purified
# [8] = target: the molecule itself; test: as above
# [9] = target: phosphodiesterase domain of 2',3'-cyclic nucleotide 3'-phosphodiesterase (CNPase) (Mus musculus (assumed; species not …, UniProt P16330); test: crystal structure; nanobodies co-crystallized with the phosphodiesterase domain of CNPase; conditions: both partners purified
# phosphodiesterase domain of 2',3'-cyclic nucleotide 3'-phosphodiesterase (CNPase) (Mus musculus, sequence (P16330 whole entry, looked up, the tested form may be a part): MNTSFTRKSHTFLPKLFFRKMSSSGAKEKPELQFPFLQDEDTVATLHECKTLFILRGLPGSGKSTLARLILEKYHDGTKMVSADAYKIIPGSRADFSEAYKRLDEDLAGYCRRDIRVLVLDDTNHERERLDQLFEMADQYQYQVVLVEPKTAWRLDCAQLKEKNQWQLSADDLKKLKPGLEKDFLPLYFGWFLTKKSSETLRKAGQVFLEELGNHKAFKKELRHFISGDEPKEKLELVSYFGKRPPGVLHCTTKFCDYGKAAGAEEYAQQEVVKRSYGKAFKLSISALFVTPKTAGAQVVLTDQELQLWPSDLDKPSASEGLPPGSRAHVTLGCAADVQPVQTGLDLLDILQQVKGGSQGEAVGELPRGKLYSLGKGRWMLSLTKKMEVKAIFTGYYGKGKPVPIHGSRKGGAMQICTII
molecule,measurement,setting,value
YscX:YscY heterodimer (complex),stoichiometry N (YscX:YscY complexes per YscV nonamer),[1],9
cytosolic domain of the major export gate protein YscV (domain or fragment),stoichiometry N,[1],9
"HucM, scaffold subunit of the [NiFe]-hydrogenase Huc (natural protein)",stoichiometry N,[2],4
tyrosine O-methyltransferase MfnG from Streptomyces drozdowiczii (enzyme),stoichiometry N,[3],2
Mycobacterium smegmatis MceG (enzyme),stoichiometry N,[4],2
nudivirus polyhedrin (occlusion body protein of Tipula oleracea nudivirus) (natural protein),stoichiometry N,[5],2
HucSL heterodimer (complex),stoichiometry N,[6],2
B1,binding result,[7],binds
"TGQLFQKSVDAAPTQQEDSWTSLEHILWPFTRLRHNGPPPV [KASH6 peptide, the KASH domain of JAW1/LRMP]",stoichiometry N,human SUN1 SUN domain,2 KASH6 peptides per SUN1 trimer
B2,stoichiometry N,[8],3 and 9
B3,binding result,[9],binds
